The text below walks through data of US20220119792.

Data set [1] has as its target H6-DEVD-hGH expressed from pAPT-Y-H6-DEVD-hGH-Lacuv5-rev-CASP3.
Data set [2] deals with KH6-DEVD-hGH expressed from pAPT-Y-KH6-DEVD-hGH-Lacuv5-rev-CASP3.
For data set [3], the target named is AH6-DEVD-hGH expressed from pAPT-Y-AH6-DEVD-hGH-Lacuv5-rev-CASP3.
The target of data set [4] is NH6-DEVD-hGH expressed from pAPT-Y-NH6-DEVD-hGH-Lacuv5-rev-CASP3.
The target of data set [5] is H6-DEVD-hGH expressed from pETDuet-H6-DEVD-hGH-T7-rev-CASP3.
In data set [6] the target is DH6-DEVD-hGH expressed from pAPT-Y-DH6-DEVD-hGH-Lacuv5-rev-CASP3.
Data set [7] concerns the target HAK-DEVD-hGH expressed from pAPT-Y-HAK-DEVD-hGH-Lacuv5-rev-CASP3.

Sequence of HAK-DEVD-hGH expressed from pAPT-Y-HAK-DEVD-hGH-Lacuv5-rev-CASP3 (chain, as listed by the source): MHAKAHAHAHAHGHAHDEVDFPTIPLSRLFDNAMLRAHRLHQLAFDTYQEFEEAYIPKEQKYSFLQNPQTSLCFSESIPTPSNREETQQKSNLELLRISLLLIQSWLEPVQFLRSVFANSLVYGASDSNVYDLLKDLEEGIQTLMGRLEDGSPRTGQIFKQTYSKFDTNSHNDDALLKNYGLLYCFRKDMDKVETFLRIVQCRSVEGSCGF
Sequence of H6-DEVD-hGH expressed from pETDuet-H6-DEVD-hGH-T7-rev-CASP3 (chain, as listed by the source): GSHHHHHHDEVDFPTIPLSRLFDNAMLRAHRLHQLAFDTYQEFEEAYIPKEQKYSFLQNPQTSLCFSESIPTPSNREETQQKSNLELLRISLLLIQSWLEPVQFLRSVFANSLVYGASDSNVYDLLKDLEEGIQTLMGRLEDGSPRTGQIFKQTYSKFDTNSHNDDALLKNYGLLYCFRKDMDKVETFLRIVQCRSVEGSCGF
Sequence of DH6-DEVD-hGH expressed from pAPT-Y-DH6-DEVD-hGH-Lacuv5-rev-CASP3 (chain, as listed by the source): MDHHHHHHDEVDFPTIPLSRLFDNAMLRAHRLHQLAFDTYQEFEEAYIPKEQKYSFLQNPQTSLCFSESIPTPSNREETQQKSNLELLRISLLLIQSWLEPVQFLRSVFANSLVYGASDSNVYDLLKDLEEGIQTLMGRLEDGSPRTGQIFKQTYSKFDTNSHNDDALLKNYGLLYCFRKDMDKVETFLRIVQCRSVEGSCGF
Sequence of NH6-DEVD-hGH expressed from pAPT-Y-NH6-DEVD-hGH-Lacuv5-rev-CASP3 (chain, as listed by the source): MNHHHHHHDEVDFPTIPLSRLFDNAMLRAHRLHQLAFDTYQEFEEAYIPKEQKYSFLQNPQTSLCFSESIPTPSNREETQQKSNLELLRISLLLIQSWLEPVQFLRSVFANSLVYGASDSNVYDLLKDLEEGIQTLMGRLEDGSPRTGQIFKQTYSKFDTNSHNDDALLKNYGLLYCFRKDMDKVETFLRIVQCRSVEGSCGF
Sequence of AH6-DEVD-hGH expressed from pAPT-Y-AH6-DEVD-hGH-Lacuv5-rev-CASP3 (chain, as listed by the source): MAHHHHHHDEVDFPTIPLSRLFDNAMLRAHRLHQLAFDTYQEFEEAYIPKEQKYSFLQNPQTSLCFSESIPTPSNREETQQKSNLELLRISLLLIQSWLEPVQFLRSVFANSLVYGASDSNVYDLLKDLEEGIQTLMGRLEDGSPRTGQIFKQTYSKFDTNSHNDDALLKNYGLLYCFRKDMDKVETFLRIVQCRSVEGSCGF
Sequence of H6-DEVD-hGH expressed from pAPT-Y-H6-DEVD-hGH-Lacuv5-rev-CASP3 (chain, as listed by the source): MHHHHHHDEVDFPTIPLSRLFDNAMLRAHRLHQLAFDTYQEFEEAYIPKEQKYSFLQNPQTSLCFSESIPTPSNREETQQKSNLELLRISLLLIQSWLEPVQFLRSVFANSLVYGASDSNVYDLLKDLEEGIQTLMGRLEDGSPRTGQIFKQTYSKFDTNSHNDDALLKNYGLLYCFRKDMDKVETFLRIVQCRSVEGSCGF
Sequence of KH6-DEVD-hGH expressed from pAPT-Y-KH6-DEVD-hGH-Lacuv5-rev-CASP3 (chain, as listed by the source): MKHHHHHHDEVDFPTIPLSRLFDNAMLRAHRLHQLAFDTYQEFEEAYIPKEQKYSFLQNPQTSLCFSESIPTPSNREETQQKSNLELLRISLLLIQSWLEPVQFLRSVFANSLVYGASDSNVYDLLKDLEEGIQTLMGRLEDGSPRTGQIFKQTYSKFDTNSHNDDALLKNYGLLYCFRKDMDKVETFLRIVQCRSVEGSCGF

B1: reverse caspase-3 (protein)
chain: MIETDSGVDDDMACHKIPVEADFLYAYSTAPGYYSWRNSKDGSWFIQSLCAMLKQYADKLEFMHILTRVNRKVATEFESFSFDATFHAKKQIPCIVSMLTKELYFYHDEVDGENTENSVDSKSIKNLEPKIIHGSESMDSGISLDNSYKMDYPEMGLCIIINNKNFHKSTGMTSRSGTDVDAANLRETFRNLKYEVRNKNDLTREEIVELMRDVSKEDHSKRSSFVCVLLSHGEEGIIFGTNGPVDLKKITNFFRGDRCRSLTGKPKLFIIQACRGTELDCGIETD
With B1, the “cleavage of synthetic tag (Western blot, co-expression in E. coli)” value in data set [1], in data set [2], in data set [3], in data set [4], in data set [6] and in data set [7] was 99.30% or more of the synthetic tag was cleaved each time. Moreover, the “cleavage of N-terminal methionine and synthetic tag (Western blot, co-expression in E. coli)” value in data set [5] is 96.12% of the N-terminal methionine of the growth hormone protein and the synthetic tag was cleaved.
